Test results taken from PMC9279676, “ERK2 MAP kinase regulates SUFU binding by multisite phosphorylation of GLI1” (Life Science Alliance, 2022).
Numbering of substitutions follows the chain as printed.

Columns and labels:
[1] = target: T1, full-length GLI1^G122A,H123A, 35S-radiolabeled (human, UniProt P08151-1 1-1106, G122A | H123A, [35S]-methionine label); experiment: pull-down; purified GST-SUFU, 1.25-80 nM, captured on glutathione-Sepharose beads; ∼1 pmol 35S-GLI1 (1-232 or full length) in 200 μl; 15 min at 30°C, then 1 h at room temperature; Binding Buffer + 1 mg/ml BSA; bound GLI1 quantified by SDS-PAGE and Phosphorimager; Kd from binding isotherms; details: one partner purified
T1 construct: human GLI1, full length (1,106 residues); also called G122A, H123A double substitution; source: in vitro transcription/translation, partially purified by ammonium sulfate precipitation
T1 sequence (looked up): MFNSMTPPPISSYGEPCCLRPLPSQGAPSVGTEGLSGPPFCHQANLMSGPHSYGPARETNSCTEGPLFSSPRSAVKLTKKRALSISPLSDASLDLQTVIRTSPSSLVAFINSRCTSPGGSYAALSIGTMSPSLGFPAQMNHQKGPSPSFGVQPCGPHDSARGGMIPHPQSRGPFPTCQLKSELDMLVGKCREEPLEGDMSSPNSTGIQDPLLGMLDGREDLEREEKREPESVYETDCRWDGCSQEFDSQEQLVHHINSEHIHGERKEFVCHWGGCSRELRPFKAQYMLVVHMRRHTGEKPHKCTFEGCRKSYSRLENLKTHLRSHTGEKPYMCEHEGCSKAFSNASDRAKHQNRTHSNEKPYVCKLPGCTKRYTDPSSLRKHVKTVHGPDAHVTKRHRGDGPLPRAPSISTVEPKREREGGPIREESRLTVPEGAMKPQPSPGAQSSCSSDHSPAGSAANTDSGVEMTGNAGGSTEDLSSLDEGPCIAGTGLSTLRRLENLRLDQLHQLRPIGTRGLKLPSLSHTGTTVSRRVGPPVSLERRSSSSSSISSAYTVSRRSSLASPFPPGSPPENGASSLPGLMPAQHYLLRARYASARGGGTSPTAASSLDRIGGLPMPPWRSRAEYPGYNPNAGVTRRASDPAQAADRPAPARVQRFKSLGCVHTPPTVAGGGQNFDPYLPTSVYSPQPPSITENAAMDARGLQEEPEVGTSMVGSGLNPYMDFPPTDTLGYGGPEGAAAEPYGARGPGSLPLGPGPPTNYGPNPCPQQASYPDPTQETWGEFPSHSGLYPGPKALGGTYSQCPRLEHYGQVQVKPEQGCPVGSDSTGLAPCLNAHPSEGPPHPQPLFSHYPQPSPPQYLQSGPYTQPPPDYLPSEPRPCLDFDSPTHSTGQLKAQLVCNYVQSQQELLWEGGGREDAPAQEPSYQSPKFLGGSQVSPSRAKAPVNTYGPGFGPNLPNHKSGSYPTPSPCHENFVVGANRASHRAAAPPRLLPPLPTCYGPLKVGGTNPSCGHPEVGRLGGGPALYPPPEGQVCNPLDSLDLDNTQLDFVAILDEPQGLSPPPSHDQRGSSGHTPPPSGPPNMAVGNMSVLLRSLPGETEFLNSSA

[2] = target: T2, GLI1_(1-232) S116E S130E, 35S-radiolabeled (human, UniProt P08151-1 1-232, S116E | S130E, [35S]-methionine label)
T2 sequence: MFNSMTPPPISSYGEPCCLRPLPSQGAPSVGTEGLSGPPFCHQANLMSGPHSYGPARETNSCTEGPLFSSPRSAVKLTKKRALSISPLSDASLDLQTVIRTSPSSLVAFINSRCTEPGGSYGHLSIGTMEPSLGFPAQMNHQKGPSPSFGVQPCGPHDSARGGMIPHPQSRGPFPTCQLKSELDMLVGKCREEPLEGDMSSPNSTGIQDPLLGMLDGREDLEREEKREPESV

[3] = target: T3, GLI1_(1-232) S116E, 35S-radiolabeled (human, UniProt P08151-1 1-232, S116E, [35S]-methionine label)
T3 sequence: T2 sequence with E130S

[4] = target: T4, GLI1_(1-232) S102E S130E, 35S-radiolabeled (human, UniProt P08151-1 1-232, S102E | S130E, [35S]-methionine label)
T4 sequence: T2 sequence with S102E, E116S

[5] = target: T5, GLI1_(1-232) S102E S116E S130E, 35S-radiolabeled (human, UniProt P08151-1 1-232, S102E | S116E | S130E, [35S]-methionine label)
T5 sequence: T2 sequence with S102E

Kd [1]: 120 ± 35 nM
Kd [2]: 19 nM
Kd [3]: 7 nM
Kd [4]: 300 nM
Kd [5]: 520 nM
B1: GST-SUFU (fusion of GST to full-length human SUFU) (natural protein, UniProt Q9UMX1-1 1-484, looked up)
chain: MAELRPSGAPGPTAPPAPGPTAPPAFASLFPPGLHAIYGECRRLYPDQPNPLQVTAIVKYWLGGPDPLDYVSMYRNVGSPSANIPEHWHYISFGLSDLYGDNRVHEFTGTDGPSGFGFELTFRLKRETGESAPPTWPAELMQGLARYVFQSENTFCSGDHVSWHSPLDNSESRIQHMLLTEDPQMQPVQTPFGVVTFLQIVGVCTEELHSAQQWNGQGILELLRTVPIAGGPWLITDMRRGETIFEIDPHLQERVDKGIETDGSNLSGVSAKCAWDDLSRPPEDDEDSRSICIGTQPRRLSGKDTEQIRETLRRGLEINSKPVLPPINPQRQNGLAHDRAPSRKDSLESDSSTAIIPHELIRTRQLESVHLKFNQESGALIPLCLRGRLLHGRHFTYKSITGDMAITFVSTGVEGAFATEEHPYAAHGPWLQILLTEEFVEKMLEDLEDLTSPEEFKLPKEYSWPEKKLKVSILPDVVFDSPLH
notes: human SUFU, full length (residues 1-484), BamHI-SUFU-SalI cassette in pGEX-LB; pGEX-LB carries a Gly-Gly-Gly-Gly-Gly-Ser-Gly stretch between GST and the fused protein; also called full-length GST-SUFU; source: Escherichia coli, purified (glutathione-Sepharose); not shown: GST, N-terminal, kept
